Results as given in the supplement of paper PMC9732359.
± gives the uncertainty stated by the source.

Experiment: protein stability index of a GFP-peptide fusion (yeast GPS) (PSI 1-4); higher = more stable; sorted into four equal gates, so the index is relative within each strain
How it was run: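 Tiled yeast protein peptides of 17 residues were each joined downstream of GFP, on plasmids that also express Cherry. The pooled library was maintained in yeast, and mid-log cultures in leucine-free medium were sorted into four equal gates on the GFP/Cherry ratio. Plasmids from every gate were amplified by PCR and sequenced on Illumina, with barcodes linking reads to strains. The protein stability index of a peptide is its gate-number-weighted read frequency summed over the gates.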

Sequence | protein stability index (doa10∆) | protein stability index (pdr5∆) | protein stability index (san1∆) | protein stability index (ubr1∆)
NNYNSRIQLMNDFTTKL [MED1] | 2.89 ± 0.075 | 2.85 ± 0.075 | 2.98 ± 0.058 | 3.08 ± 0.059
NPHQDLQAQDRAHRIGQ [SNF2] | 3.03 ± 0.077 | 3.04 ± 0.074 | 2.9 ± 0.07 | 3.19 ± 0.053
NPIANHTVTNSPNPTLQ [SNF5] | 2.64 ± 0.038 | 2.83 ± 0.046 | 2.65 ± 0.038 | 2.65 ± 0.03
NPIDIKRRFGELMDRTG [RPP1] | 3.08 ± 0.12 | 3.19 ± 0.18 | 2.26 ± 0.26 | 2.9 ± 0.059
NPLKNKQVLLRLNPYAK [RPL4A] | 1.34 ± 0.17 | 1.21 ± 0.11 | 1.15 ± 0.15 | 1.13 ± 0.18
NPLWNAIIVAGVQSNGD [PRE4] | 1.25 ± 0.054 | 1.37 ± 0.044 | 1.53 ± 0.075 | 1.89 ± 0.04
NPNNVNVQTQYREAPVI [RET1] | 2.5 ± 0.085 | 2.73 ± 0.045 | 2.48 ± 0.1 | 2.63 ± 0.057
NPPSYQSSEDVITIKSR [RPB7] | 2.78 ± 0.17 | – | 2.6 ± 0.12 | 2.25 ± 0.28
NPRKRKASVLEISPQDS [GAL11] | – | – | – | 3.1 ± 0.13
NPSNTPDKDYLLSIPIS [FAS1] | 2.89 ± 0.078 | 3.1 ± 0.079 | 2.88 ± 0.054 | 2.82 ± 0.066
NQEDEKNLQRESCEDIL [RTT102] | – | – | – | 3.17 ± 0.2
NQEDLFELVHHFFQIDG [YML103C/NUP188] | 2.97 ± 0.079 | 3.04 ± 0.065 | 2.85 ± 0.081 | 2.68 ± 0.051
NQLDGFDDRGDVKVIMA [RPT2] | 3.47 ± 0.17 | 3.44 ± 0.27 | 3.09 ± 0.1 | 3.52 ± 0.17
NQNSDMKKKLELISYRN [SRB8] | 2.91 ± 0.048 | 3.04 ± 0.059 | 2.93 ± 0.051 | 3.08 ± 0.04
NQVTDSSQLNKLTDEQS [SIR3] | 2.71 ± 0.063 | 2.74 ± 0.069 | 2.82 ± 0.07 | 2.68 ± 0.072
NRAEGPEELARILQQLK [RGR1] | 3.21 ± 0.11 | 3.17 ± 0.19 | 3.19 ± 0.12 | 3.62 ± 0.097
NRDRSFQLLEPLSTYNK [PGD1] | 3 ± 0.051 | 2.95 ± 0.062 | 2.93 ± 0.053 | 2.72 ± 0.045
NREAATKEVESNIITKS [DIS3] | 2.79 ± 0.11 | 2.94 ± 0.064 | 2.79 ± 0.074 | 2.87 ± 0.089
NRRLVYSRILKSMGRKC [YCG1] | 1.41 ± 0.12 | 1.17 ± 0.084 | 1.3 ± 0.2 | 1.14 ± 0.067
NRSAYDSKNTPNVFDKD [YDL088C/ASM4] | 2.41 ± 0.1 | 2.72 ± 0.075 | 2.9 ± 0.074 | 2.92 ± 0.091
NRSWDHAYNITFNNQDK [RPO31] | 2.75 ± 0.073 | 2.82 ± 0.061 | 2.7 ± 0.071 | 2.97 ± 0.042
NRWHSESWANQLTVCGA [FAS2] | 1.93 ± 0.04 | 1.87 ± 0.053 | 1.8 ± 0.086 | 1.86 ± 0.042
NSAQNNSTTSGGLFGNK [YGR119C/NUP57] | 3.25 ± 0.13 | 2.91 ± 0.13 | 3.2 ± 0.073 | 3.24 ± 0.17
NSDDCMMEEIINVVIKA [ECM29] | 3.31 ± 0.14 | 3.67 ± 0.18 | 3.14 ± 0.11 | 2.97 ± 0.11
NSDLEGKIRGVEDDLVT [SMC2] | 3.14 ± 0.094 | 3.33 ± 0.064 | 3.15 ± 0.067 | 3.24 ± 0.051
NSEKFVFLLTTRAGGLG [ISW2] | 1.67 ± 0.26 | 1.4 ± 0.13 | 1.11 ± 0.11 | 1.51 ± 0.12
NSFKLFKAEKLQIVNQL [RPC17] | 2.82 ± 0.077 | 2.32 ± 0.076 | 1.85 ± 0.16 | 2.13 ± 0.056

Sequence | protein stability index (doa10∆) | protein stability index (pdr5∆) | protein stability index (san1∆) | protein stability index (ubr1∆)
NSFTKGNVFSPIDNNII [SNU114] | 2.98 ± 0.093 | 2.92 ± 0.074 | 2.83 ± 0.081 | 2.95 ± 0.058
NSGVGSAKGPEIIPLQD [MED6] | 3.35 ± 0.16 | 3.21 ± 0.088 | 3.16 ± 0.071 | 3.23 ± 0.064
NSKVDMKYDIFAKFIHH [IRR1] | 2.39 ± 0.083 | 2.15 ± 0.077 | 2.31 ± 0.071 | 2.47 ± 0.054
NSKVNKLNIETMRKISS [DSN1] | 2.5 ± 0.17 | 2.43 ± 0.11 | 2.13 ± 0.12 | 2.95 ± 0.07
NSLTKYPDLKAFHNNLK [MED1] | 2.9 ± 0.11 | 3.16 ± 0.089 | 2.89 ± 0.092 | 2.93 ± 0.062
NSLTVDGNNANYIYAGY [RPN14] | 2.87 ± 0.088 | 2.55 ± 0.078 | 2.42 ± 0.092 | 2.85 ± 0.049
NSNPTSNVFGSNNSTTN [YJL041W/NSP1] | 3.23 ± 0.079 | 3.43 ± 0.086 | 3.16 ± 0.055 | 3.46 ± 0.066
NSPNYFVAKLAAQIFGS [COR1] | 1.84 ± 0.044 | 2.02 ± 0.061 | 1.68 ± 0.08 | 2.12 ± 0.049
NSQTVSGTPITQTESKK [SNF2] | 2.67 ± 0.05 | 2.27 ± 0.05 | 2.7 ± 0.053 | 2.39 ± 0.039
NSSMRYGYWFDCRMGNF [AAR2] | – | – | 1.83 ± 0.12 | –
NSTTSGGLFGNKVGSTG [YGR119C/NUP57] | 3.17 ± 0.13 | 3.47 ± 0.19 | 3.21 ± 0.071 | 3.29 ± 0.17
NSYWLIILLGVLEDCRH [ITC1] | 1.42 ± 0.061 | 1.53 ± 0.048 | 2.44 ± 0.083 | 2.36 ± 0.057
NTCYLNATLQALYRVND [UBP6] | 2.25 ± 0.07 | 2.59 ± 0.069 | 2.69 ± 0.063 | 2.5 ± 0.055
NTGPSTGGLFGAKPAGS [YGL172W/NUP49] | 3.43 ± 0.12 | 3.32 ± 0.11 | 2.67 ± 0.17 | –
NTIGSVHGKAPMLMANN [SSN3] | 1.54 ± 0.18 | 1.54 ± 0.11 | 1.48 ± 0.19 | 1.89 ± 0.19
NTNNNDTIATSATPNAA [GAL11] | 2.7 ± 0.046 | 2.88 ± 0.046 | 2.59 ± 0.044 | 2.74 ± 0.043
NTSLPPSILEDSLENNE [FAS1] | 2.89 ± 0.11 | 2.98 ± 0.11 | 3.11 ± 0.095 | 2.81 ± 0.079
NTTLQDNVSFIEEAKSI [REC8] | 3.1 ± 0.084 | 3.22 ± 0.091 | 3.23 ± 0.064 | 3.17 ± 0.066
NVDRLYKLNVRSNDPQS [NUT2] | 3.22 ± 0.11 | 3.2 ± 0.084 | 3.27 ± 0.065 | 3.39 ± 0.089
NVEKYPTFVEFILIPLY [SNU114] | 2.33 ± 0.052 | 2.46 ± 0.054 | 2.04 ± 0.069 | 2.65 ± 0.053
NVELLNCIRILADKLEN [YIL149C/MLP2] | 1.22 ± 0.069 | 1.36 ± 0.074 | 1.06 ± 0.13 | 1.2 ± 0.045
NVESAGAMTPEEIFFKS [RPC40] | 3.04 ± 0.074 | 3.31 ± 0.085 | 3.17 ± 0.054 | 3.27 ± 0.045
NVIKTGIRIISLTYKKI [RPN3] | 1.83 ± 0.1 | 2.25 ± 0.081 | 1.99 ± 0.12 | 2.2 ± 0.042
NVISSKDWELEARFWHL [YDL116W/NUP84] | 3.46 ± 0.096 | 3.32 ± 0.062 | 3.43 ± 0.066 | 3.25 ± 0.068
NVKEEETVAKSKNAERK [RPS8A] | 3.07 ± 0.038 | 3.09 ± 0.035 | 3.215 ± 0.022 | 3.001 ± 0.029
NVLIGGYDKKKNKPELY [PRE1] | – | 2.53 ± 0.27 | – | 2.74 ± 0.27
NVLNQIHQILLPTNPTL [CSE2] | 2.65 ± 0.036 | 2.74 ± 0.037 | 2.14 ± 0.05 | 2.42 ± 0.035
